The text below walks through data of PMC11012335.

In data set [1] the target is Hfq WT (Escherichia coli K-12 MG1655) (UniProt P0A6X3). The experiment in a line: EMSA. The following applies: EMSA: 20 mM Tris-HCl pH 7.6, 0.5 M NaCl, 1 mM EDTA, 1% glycerol, 20 min at 25 C, native PAGE in 0.5x TBE at 4 C.
The target is the same in data set [2]. Briefly: competition. The following applies: EMSA: 20 mM Tris-HCl pH 7.6, 0.5 M NaCl, 1 mM EDTA, 1% glycerol, 20 min at 25 C; native PAGE in 0.5x TBE at 4 C.

DsrA: the K half in data set [1] (Hfq monomer, K1 (first shift)) came out at 122 nM.

“GGGAACACAUCAGAUUUCCUGGUGUAACGAAUUUUUUAAGUGCUUCUUGCUUAAGCAAGUUUCAUCCCGACCCCCUCAGGGUCGGGAUUU [DsrA]” returned a K half in data set [1] of 122 nM. The binding result in data set [2] is “binds”. In turn, RNA I FL yielded a binding signal in data set [1] (347.5 nM Hfq monomer) of 72.1 % bound. Besides, the K half in data set [1] (Hfq monomer, K1 (first shift)) amounted to 225 nM.
